This passage reports protein stability index results from the supplement of paper PMC10567573.

B1: SNAP91 (parent)
chain: FAQPMMRPPFGAAAVPGTQLSPSP
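Further: lentivirally expressed fusions sorted by FACS into six bins by GFP to DsRed ratio, PSI derived from sequencing read proportions per bin multiplied by bin number.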

The variants in the series derive from B1. The experiment in a line: protein stability index of a GFP-peptide fusion (GPS, HEK-293T) (PSI 1-6); higher = more stable. To be noted: c terminus: a fixed tail appended.
In the case of FAQPMMRPPFLAAAVPGTQLSPSP [G11L], the protein stability index came to 3.04.
For FAQPMMRPPFMAAAVPGTQLSPSP [G11M], the protein stability index was 3.29.
With FAQPMMRPPFYAAAVPGTQLSPSP [G11Y], the protein stability index stood at 2.91.
The value for FAQPMMRPPFRAAAVPGTQLSPSP [G11R] was 4.01; that for FAQPMMRPPFNAAAVPGTQLSPSP [G11N] was 3.67; that for FAQPMMRPPFSAAAVPGTQLSPSP [G11S] was 4.04.
FAQPMMRPPFVAAAVPGTQLSPSP [G11V]: the protein stability index is 3.35.
The value for FAQPMMRPPFPAAAVPGTQLSPSP [G11P] was 3.98; that for FAQPMMRPPFQAAAVPGTQLSPSP [G11Q] was 4.35.
The value for FAQPMMRPPFWAAAVPGTQLSPSP [G11W] was 1.88; that for FAQPMMRPPFGAAAVPGTDLSPSP [Q19D] was 3.22.
Turning to FAQPMMRPPFGAAAVPGTSLSPSP [Q19S], the protein stability index was 2.84.
The figure for FAQPMMRPPFGAAAVPGTWLSPSP [Q19W] is 2.4; for FAQPMMRPPFGAAAVPGTGLSPSP [Q19G] it is 2.96; for FAQPMMRPPFGAAAVPGTILSPSP [Q19I] it is 2.87.
On to FAQPMMRPPFGAAAVPGTRLSPSP [Q19R], for which the protein stability index came out at 3.
The value for FAQPMMRPPFGAAAVPGTYLSPSP [Q19Y] was 2.69; that for FAQPMMRPPFGAAAVPGTVLSPSP [Q19V] was 2.96; that for FAQPMMRPPFGAAAVPGTLLSPSP [Q19L] was 2.5.
The figure for FAQPMMRPPFGAAAVPGTMLSPSP [Q19M] is 2.89; for FAQPMMRPPFGAAAVPGTTLSPSP [Q19T] it is 2.87.
The figure for FAQPMMRPPFGAAAVPGTALSPSP [Q19A] is 2.98; for FAQPMMRPPFGAAAVPGTHLSPSP [Q19H] it is 3.08.
As to FAQPMMRPPFGAAAVPGTELSPSP [Q19E], the protein stability index turned out to be 2.72.
The figure for FAQPMMRPPFGAAAVPGTNLSPSP [Q19N] is 3.17; for FAQPMMRPPFGAAAVPGTCLSPSP [Q19C] it is 2.57; for FAQPMMRPPFGAAAVPGTKLSPSP [Q19K] it is 2.41.
The figure for FAQPMMRPPFGAAAVPGTFLSPSP [Q19F] is 2.64; for FAQPMMRPPFGAAAVKGTQLSPSP [P16K] it is 3.25; for FAQPMMRPPFGAAAVLGTQLSPSP [P16L] it is 2.74.
As to FAQPMMRPPFGAAAVWGTQLSPSP [P16W], the protein stability index was determined as 1.78.
The figure for FAQPMMRPPFGAAAVTGTQLSPSP [P16T] is 3.37.
The value for FAQPMMRPPFGAAAVGGTQLSPSP [P16G] was 2.81; that for FAQPMMRPPFGAAAVRGTQLSPSP [P16R] was 3.36.
The figure for FAQPMMRPPFGAAAVFGTQLSPSP [P16F] is 2.53; for FAQPMMRPPFGAAAVDGTQLSPSP [P16D] it is 2.99.
With FAQPMMRPPFGAAAVCGTQLSPSP [P16C], the protein stability index was 2.77.
On to FAQPMMRPPFGAAAVIGTQLSPSP [P16I], for which the protein stability index is 2.22.
The value for FAQPMMRPPFGAAAVAGTQLSPSP [P16A] was 3.29; that for FAQPMMRPPFGAAAVMGTQLSPSP [P16M] was 2.69; that for FAQPMMRPPFGAAAVNGTQLSPSP [P16N] was 3.2.
FAQPMMRPPFGAAAVEGTQLSPSP [P16E]: the protein stability index is 2.38.
The figure for FAQPMMRPPFGAAAVVGTQLSPSP [P16V] is 3.33; for FAQPMMRPPFGAAAVQGTQLSPSP [P16Q] it is 3.19.
The figure for FAQPMMRPPFGAAAVYGTQLSPSP [P16Y] is 2.15; for FAQPMMRPPFGAAAVSGTQLSPSP [P16S] it is 3.02.
The value for FAQPMMRPPFGAAAVHGTQLSPSP [P16H] was 2.71; that for FAQPMMRPPFGSAAVPGTQLSPSP [A12S] was 2.91; that for FAQPMMRPPFGLAAVPGTQLSPSP [A12L] was 2.42.
Turning to FAQPMMRPPFGYAAVPGTQLSPSP [A12Y], the protein stability index is 2.53.
The value for FAQPMMRPPFGFAAVPGTQLSPSP [A12F] was 2.83; that for FAQPMMRPPFGMAAVPGTQLSPSP [A12M] was 3.03; that for FAQPMMRPPFGVAAVPGTQLSPSP [A12V] was 2.55.
The value for FAQPMMRPPFGIAAVPGTQLSPSP [A12I] was 2.58; that for FAQPMMRPPFGTAAVPGTQLSPSP [A12T] was 2.91; that for FAQPMMRPPFGKAAVPGTQLSPSP [A12K] was 3.16.
The figure for FAQPMMRPPFGCAAVPGTQLSPSP [A12C] is 2.46.
On to FAQPMMRPPFGQAAVPGTQLSPSP [A12Q], for which the protein stability index was found to be 3.62.
As to FAQPMMRPPFGEAAVPGTQLSPSP [A12E], the protein stability index turned out to be 3.39.
The figure for FAQPMMRPPFGRAAVPGTQLSPSP [A12R] is 3.33.
As to FAQPMMRPPFGPAAVPGTQLSPSP [A12P], the protein stability index is 2.7.
The value for FAQPMMRPPFGHAAVPGTQLSPSP [A12H] was 2.96.
The value for FAQPMMRPPFGDAAVPGTQLSPSP [A12D] was 3.82.
FAQPMMRPPFGNAAVPGTQLSPSP [A12N]: the protein stability index turned out to be 3.54.
Take FAQPMMRPPFGGAAVPGTQLSPSP [A12G]: the protein stability index was determined as 3.5.
The value for FAQPMMRPPFGWAAVPGTQLSPSP [A12W] was 2.77; that for FAQPMMRPPFGAAAVPGTQLDPSP [S21D] was 2.63; that for FAQPMMRPPFGAAAVPGTQLIPSP [S21I] was 3.48.
The value for FAQPMMRPPFGAAAVPGTQLKPSP [S21K] was 2.95; that for FAQPMMRPPFGAAAVPGTQLAPSP [S21A] was 3.49.
With FAQPMMRPPFGAAAVPGTQLFPSP [S21F], the protein stability index is 3.01.
The value for FAQPMMRPPFGAAAVPGTQLGPSP [S21G] was 3.28.
The value for FAQPMMRPPFGAAAVPGTQLCPSP [S21C] was 2.86.
The value for FAQPMMRPPFGAAAVPGTQLEPSP [S21E] was 2.98; that for FAQPMMRPPFGAAAVPGTQLHPSP [S21H] was 3.16.
FAQPMMRPPFGAAAVPGIQLSPSP [T18I]: the protein stability index was 2.84.
The figure for FAQPMMRPPFGAAAVPGWQLSPSP [T18W] is 2.29; for FAQPMMRPPFGAAAVPGEQLSPSP [T18E] it is 2.6.
As for FAQPMMRPPFGAAAVPGDQLSPSP [T18D], the protein stability index is 2.6.
The value for FAQPMMRPPFGAAAVPGLQLSPSP [T18L] was 2.95; that for FAQPMMRPPFGAAAVPGVQLSPSP [T18V] was 2.76.
The value for FAQPMMRPPFGAAAVPGYQLSPSP [T18Y] was 2.58; that for FAQPMMRPPFGAAAVPGQQLSPSP [T18Q] was 3.15; that for FAQPMMRPPFGAAAVPGFQLSPSP [T18F] was 2.89.
The value for FAQPMMRPPFGAAAVPGGQLSPSP [T18G] was 2.72.
On to FAQPMMRPPFGAAAVPGAQLSPSP [T18A], for which the protein stability index worked out at 3.1.
The value for FAQPMMRPPFGAAAVPGMQLSPSP [T18M] was 2.95; that for FAQPMMRPPFGAAAVPGPQLSPSP [T18P] was 3.14.
FAQPMMRPPFGAAAVPGKQLSPSP [T18K]: the protein stability index is 2.75.
The figure for FAQPMMRPPFGAAAVPGHQLSPSP [T18H] is 2.82; for FAQPMMRPPFGAAAVPGCQLSPSP [T18C] it is 2.92.
The figure for FAQPMMRPPFGAAAVPGSQLSPSP [T18S] is 3.02; for FAQPMMRPPFGAAAVPGRQLSPSP [T18R] it is 3.41.
The figure for FAQPMMRPPFGAAAVPGNQLSPSP [T18N] is 2.87.
